Measurements reported in PMC7790537 (PLoS ONE, 2021).

B1: F11 IgA1 polymer (antibody, V domains shown)
VH: QVQLVQSGAEVKRPGSSVRVSCRTSGGSFTSFAISWVRQAPGQGLEWMGRITRILGVPNYAQKFQGRVTITADMPTTTAYLDLTNLRSEDTAVYYCARDSGTSHGDFDYWGQGTLVTVSS
VL: EIVLTQSPVTLSLSPGERATLSCRASQNVINSLVWYQQKPGQAPRLLIYGASNRATGIPARFRGSGSGTDFTLTIDSLEPEDIAVYYCQQRGTWLWSFGQGTKVEIK
B2: F11 IgA1 monomer (antibody, V domains shown)
VH: B1 VH
VL: B1 VL
B3: F11 IgA2m2 polymer (antibody, V domains shown)
VH: B1 VH
VL: B1 VL
B4: F11 IgA2m2 monomer (antibody, V domains shown)
VH: B1 VH
VL: B1 VL

Target: recombinant trimeric HA of A/New Caledonia/20/1999 (H1N1) (Influenza A virus A/New …, UniProt Q6WG00)
Test: cell-based or functional assay

Binder	HI activity, minimum HI concentration, NC20 virus	NI activity, EC50 (NI-ELLA), NC20 virus	NT activity, minimum virus-neutralizing concentration, NC20 virus
B1	62.5 µg/mL	0.106 µg/mL	15.8 µg/mL
B2	62.5 µg/mL	0.148 µg/mL	28.1 µg/mL
B3		0.0162 µg/mL	5.57 µg/mL
B4	31.3 µg/mL	0.0617 µg/mL	
